Positions count from the first letter of the chain named. Names and notes keep the numbering of the source. Values joined by “and” are separate entries in the source; they are usually repeats but may differ in a detail not shown here. Identical values can stand only once.

This assay deals with HRgpA-6H (Porphyromonas gingivalis) (UniProt P28784). Nature of the assay: ELISA on coated HRgpA-6H.
Chain of UniProt P28784 (P28784 228-991 limits assumed): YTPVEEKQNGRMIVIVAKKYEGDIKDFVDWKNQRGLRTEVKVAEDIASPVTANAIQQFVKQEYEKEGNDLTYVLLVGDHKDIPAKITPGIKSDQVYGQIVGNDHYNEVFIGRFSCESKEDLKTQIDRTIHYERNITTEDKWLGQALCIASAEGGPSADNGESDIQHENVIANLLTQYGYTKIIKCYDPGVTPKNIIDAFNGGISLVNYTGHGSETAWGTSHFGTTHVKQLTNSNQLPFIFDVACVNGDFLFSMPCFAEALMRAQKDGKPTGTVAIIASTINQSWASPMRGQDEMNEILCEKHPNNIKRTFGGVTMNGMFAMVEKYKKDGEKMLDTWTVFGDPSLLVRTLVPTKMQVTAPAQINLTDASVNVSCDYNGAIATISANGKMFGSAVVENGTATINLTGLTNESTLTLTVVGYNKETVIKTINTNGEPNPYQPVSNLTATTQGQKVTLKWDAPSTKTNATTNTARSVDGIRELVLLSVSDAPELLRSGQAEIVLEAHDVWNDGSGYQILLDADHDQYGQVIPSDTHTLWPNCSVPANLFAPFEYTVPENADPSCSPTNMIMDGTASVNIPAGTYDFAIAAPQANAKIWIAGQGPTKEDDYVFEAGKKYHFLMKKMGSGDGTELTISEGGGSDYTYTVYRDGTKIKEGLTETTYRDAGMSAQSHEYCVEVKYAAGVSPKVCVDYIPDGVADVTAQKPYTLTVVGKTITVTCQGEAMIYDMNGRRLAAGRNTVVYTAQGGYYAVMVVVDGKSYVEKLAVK

B1: KB001 mouse Fab FASEBA VH G55N (Fab, V domains shown)
VH: EVQLKQSGPGLVAPSQSLSITCTVSGFSLSIYSVHWVRQPPGKGLEWLGMIWGGNSSDYNSALKSRLSISKDNSKSQVFLKMNSLQTDDTAMYYCARNGNFYAMDYWGQGTSVTVSS
VL: QIVLTQSPAIMSASLGERVTMTCTASSSVSSSFLHWYQQKPGSSPQLWIYSTSNLASGVPARFSGSGSGTSYSLTISSMEAEDAATYYCHQYHHSPYIYTFGGGTKLEIK
As for B1, the OD450nm is 0.652 and the Ratio OD(Variant)/OD(WT) is 0.81.

B2: KB001 mouse Fab FASEBA VH Y59T (Fab, V domains shown)
VH: B1 VH with N55G, Y59T
VL: B1 VL
Take B2: the OD450nm is 0.744 and the Ratio OD(Variant)/OD(WT) came out at 0.941.

B3: KB001 mouse Fab FASEBA VH S61F (Fab, V domains shown)
VH: B1 VH with N55G, S61F
VL: B1 VL
As to B3, the OD450nm was 0.432 and 0.473; the Ratio OD(Variant)/OD(WT) is 0.875 and 0.958.

B4: KB001 mouse Fab FASEBA VH S56N (Fab, V domains shown)
VH: B1 VH with N55G, S56N
VL: B1 VL
Consider B4, for which the OD450nm was 0.759 and 0.743; the Ratio OD(Variant)/OD(WT) is 0.863 and 0.845.

B5: KB001 mouse Fab FASEBA VH S57M (Fab, V domains shown)
VH: B1 VH with N55G, S57M
VL: B1 VL
In the case of B5, the OD450nm worked out at 0.748 and the Ratio OD(Variant)/OD(WT) was 0.85.

B6: KB001 mouse Fab FASEBA VH S56E (Fab, V domains shown)
VH: B1 VH with N55G, S56E
VL: B1 VL
Take B6: the OD450nm was 0.772 and 0.713; the Ratio OD(Variant)/OD(WT) is 0.878 and 0.811.

B7: KB001 mouse Fab FASEBA VH S57T (Fab, V domains shown)
VH: B1 VH with N55G, S57T
VL: B1 VL
Regarding B7, the OD450nm is 0.843 and 0.849; the Ratio OD(Variant)/OD(WT) is 0.958 and 0.965.

B8: KB001 mouse Fab FASEBA VH N60S (Fab, V domains shown)
VH: B1 VH with N55G, N60S
VL: B1 VL
Consider B8, for which the OD450nm is 0.452 and the Ratio OD(Variant)/OD(WT) worked out at 0.916.

B9: KB001 mouse Fab FASEBA VH S57R (Fab, V domains shown)
VH: B1 VH with N55G, S57R
VL: B1 VL
Turning to B9, the OD450nm is 0.796 and the Ratio OD(Variant)/OD(WT) is 0.905.

B10: KB001 mouse Fab FASEBA VH Y59F (Fab, V domains shown)
VH: B1 VH with N55G, Y59F
VL: B1 VL
Consider B10, for which the OD450nm is 0.668 and the Ratio OD(Variant)/OD(WT) is 0.845.

B11: KB001 mouse Fab FASEBA VH S56L (Fab, V domains shown)
VH: B1 VH with N55G, S56L
VL: B1 VL
For B11, the OD450nm was determined as 0.71 and the Ratio OD(Variant)/OD(WT) came to 0.807.

B12: KB001 mouse Fab FASEBA VH S61G (Fab, V domains shown)
VH: B1 VH with N55G, S61G
VL: B1 VL
With B12, the OD450nm is 0.46 and 0.476; the Ratio OD(Variant)/OD(WT) is 0.932 and 0.965.

B13: KB001 mouse Fab FASEBA VH N60Q (Fab, V domains shown)
VH: B1 VH with N55G, N60Q
VL: B1 VL
B13: the OD450nm was 0.447 and 0.402; the Ratio OD(Variant)/OD(WT) was 0.906 and 0.815.

B14: KB001 mouse Fab FASEBA VH S56P (Fab, V domains shown)
VH: B1 VH with N55G, S56P
VL: B1 VL
With B14, the OD450nm is 0.855 and 0.788 and 0.824; the Ratio OD(Variant)/OD(WT) is 0.972 and 0.896 and 0.937.

B15: KB001 mouse Fab FASEBA VH N60T (Fab, V domains shown)
VH: B1 VH with N55G, N60T
VL: B1 VL
In the case of B15, the OD450nm was found to be 0.406 and the Ratio OD(Variant)/OD(WT) is 0.823.

B16: KB001 mouse Fab FASEBA VH S61Y (Fab, V domains shown)
VH: B1 VH with N55G, S61Y
VL: B1 VL
Turning to B16, the OD450nm worked out at 0.423 and the Ratio OD(Variant)/OD(WT) was determined as 0.857.

B17: KB001 mouse Fab FASEBA VH S56T (Fab, V domains shown)
VH: B1 VH with N55G, S56T
VL: B1 VL
In the case of B17, the OD450nm was 0.838 and 0.844 and 0.853; the Ratio OD(Variant)/OD(WT) was 0.953 and 0.96 and 0.97.

B18: KB001 mouse Fab FASEBA VH Y59K (Fab, V domains shown)
VH: B1 VH with N55G, Y59K
VL: B1 VL
With B18, the OD450nm worked out at 0.648 and the Ratio OD(Variant)/OD(WT) worked out at 0.819.

B19: KB001 mouse Fab FASEBA VH N60P (Fab, V domains shown)
VH: B1 VH with N55G, N60P
VL: B1 VL
Consider B19, for which the OD450nm is 0.44 and 0.428; the Ratio OD(Variant)/OD(WT) was 0.892 and 0.867.

B20: KB001 mouse Fab FASEBA VH S56M (Fab, V domains shown)
VH: B1 VH with N55G, S56M
VL: B1 VL
Consider B20, for which the OD450nm amounted to 0.809 and the Ratio OD(Variant)/OD(WT) stood at 0.92.

B21: KB001 mouse Fab FASEBA VH S61W (Fab, V domains shown)
VH: B1 VH with N55G, S61W
VL: B1 VL
Regarding B21, the OD450nm was 0.435 and 0.429; the Ratio OD(Variant)/OD(WT) is 0.881 and 0.869.

B22: KB001 mouse Fab FASEBA VH Y59M/S571 (Fab, V domains shown)
VH: B1 VH with N55G, S57I, Y59M
VL: B1 VL
Regarding B22, the OD450nm turned out to be 0.701 and the Ratio OD(Variant)/OD(WT) was 0.886.

B23: KB001 mouse Fab FASEBA VH S57H (Fab, V domains shown)
VH: B1 VH with N55G, S57H
VL: B1 VL
As for B23, the OD450nm came to 0.8 and the Ratio OD(Variant)/OD(WT) came out at 0.91.

B24: KB001 mouse Fab FASEBA VH D58S (Fab, V domains shown)
VH: B1 VH with N55G, D58S
VL: B1 VL
As to B24, the OD450nm was found to be 0.646 and the Ratio OD(Variant)/OD(WT) came out at 0.817.

B25: KB001 mouse Fab FASEBA VH D58G (Fab, V domains shown)
VH: B1 VH with N55G, D58G
VL: B1 VL
Consider B25, for which the OD450nm was found to be 0.778 and the Ratio OD(Variant)/OD(WT) is 0.984.

B26: KB001 mouse Fab FASEBA VH Y59R (Fab, V domains shown)
VH: B1 VH with N55G, Y59R
VL: B1 VL
Consider B26, for which the OD450nm was 0.633 and the Ratio OD(Variant)/OD(WT) was found to be 0.8.

B27: KB001 mouse Fab FASEBA VH S61R (Fab, V domains shown)
VH: B1 VH with N55G, S61R
VL: B1 VL
As for B27, the OD450nm came out at 0.438 and the Ratio OD(Variant)/OD(WT) amounted to 0.888.

These data come from US20230365662A1.
